The values below come from article PMC9665036.

Test [1] concerns the target SpyCatcher-AP205 capsid virus-like particle (cVLP) (Acinetobacter phage AP205). The test is described as follows: covalent SpyTag-SpyCatcher coupling, SDS-PAGE densitometry; SpyTagged sE2 mixed with SpyCatcher-AP205 cVLP at molar ratio 2:1 (antigen per cVLP binding site), 36 h at 4 °C; Coomassie SDS-PAGE, densitometry (ImageQuantTL).
The target in test [2] is oligomeric soluble HCV E2 (sE2, Con1 isolate, genotype 1b) with C-terminal 6x His tag and SpyTag, SEC peak 2 (Hepatitis C virus, isolate Con1 (genotype 1b)) (UniProt Q9WMX2). The test is described as follows: SEC; analytical SEC of the purified sE2 SEC peak fractions against marker proteins of known size. Background: SEC sorts molecules by how far they enter the pores of the column.

Test [3] shares this target. The test is described as follows: non-reducing SDS-PAGE; SEC peaks of sE2 in SDS-PAGE, Coomassie staining, with or without reducing agent (DTT).

With “monomeric soluble HCV E2 (sE2, Con1 isolate, genotype 1b) with C-terminal 6x His tag and SpyTag, SEC peak 1 (from UniProt Q9WMX2 384-661) (domain or fragment)”, the coupling efficiency in test [1] was found to be 60%.
As usually defined, the stoichiometry N is the number of molecules, sites or subunits per partner or assembly. For the substance “oligomeric soluble HCV E2 (sE2, Con1 isolate, genotype 1b) with C-terminal 6x His tag and SpyTag, SEC peak 2 (from UniProt Q9WMX2 384-661) (domain or fragment)”, the coupling efficiency in test [1] was 60%. Besides, the stoichiometry N in test [2] worked out at 4; in test [3], 2.
